Results published in paper PMC2916701 (Molecular cell, 2010).
Where “and” joins values, the source holds several entries; their conditions need not be identical. Identical values can stand only once.

B1: His6-Cdc15(F-BAR) (amino acids 19-295) (domain or fragment, S. pombe, UniProt Q09822 19-295, looked up)
chain: SVKFRDNFWGSEDAGMDALMSRTKSSLSVLESIDEFYAKRASIEREYASKLQELAASSADIPEVGSTLNNILSMRTETGSMAKAHEEVSQQINTELRNKIREYIDQTEQQKVVAANAIEELYQKKTALEIDLSEKKDAYEYSCNKLNSYMRQTKKMTGRELDKYNLKIRQAALAVKKMDAEYRETNELLLTVTREWIDRWTEVCDAFQHIEEYRLEFLKTNMWAYANIISTACVKDDESCEKIRLTLENTNIDEDITQMIQNEGTGTTIPPLPEFND
B2: hyperphosphorylated Cdc15-TAP (natural protein, S. pombe, UniProt Q09822 1-927, looked up)
chain: MEVNGVSQSEAAPYVTKSSVKFRDNFWGSEDAGMDALMSRTKSSLSVLESIDEFYAKRASIEREYASKLQELAASSADIPEVGSTLNNILSMRTETGSMAKAHEEVSQQINTELRNKIREYIDQTEQQKVVAANAIEELYQKKTALEIDLSEKKDAYEYSCNKLNSYMRQTKKMTGRELDKYNLKIRQAALAVKKMDAEYRETNELLLTVTREWIDRWTEVCDAFQHIEEYRLEFLKTNMWAYANIISTACVKDDESCEKIRLTLENTNIDEDITQMIQNEGTGTTIPPLPEFNDYFKENGLNYDIDQLISKAPSYPYSSSRPSASASLASSPTRSAFRPKTSETVSSEVVSSPPTSPLHSPVKPVSNEQVEQVTEVELSIPVPSIQEAESQKPVLTGSSMRRPSVTSPTFEVAARPLTSMDVRSSHNAETEVQAIPAATDISPEVKEGKNSENAITKDNDDIILSSQLQPTATGSRSSRLSFSRHGHGSQTSLGSIKRKSIMERMGRPTSPFMGSSFSNMGSRSTSPTKEGFASNQHATGASVQSDELEDIDPRANVVLNVGPNMLSVGEAPVESTSKEEDKDVPDPIANAMAELSSSMRRRQSTSVDDEAPVSLSKTSSSTRLNGLGYHSRNTSIASDIDGVPKKSTLGAPPAAHTSAQMQRMSNSFASQTKQVFGEQRTENSARESLRHSRSNMSRSPSPMLSRRSSTLRPSFERSASSLSVRQSDVVSPAPSTRARGQSVSGQQRPSSSMSLYGEYNKSQPQLSMQRSVSPNPLGPNRRSSSVLQSQKSTSSNTSNRNNGGYSGSRPSSEMGHRYGSMSGRSMRQVSQRSTSRARSPEPTNRNSVQSKNVDPRATFTAEGEPILGYVIALYDYQAQIPEEISFQKGDTLMVLRTQEDGWWDGEIINVPNSKRGLFPSNFVQTV
modifications: hyperphosphorylated at many sites (sites not given; Supp. Table 1)

Key:
[1] = biological target: the molecule itself; experiment: negative stain electron microscopy
AUC = biological target: the molecule itself; experiment: AUC

Protein	binding result [1]	stoichiometry N (AUC)
B1	binds	–
B2	–	2 and 4
